These results are taken from PMC3364216, “The RuvA Homologues from Mycoplasma genitalium and Mycoplasma pneumoniae Exhibit Unique Functional Characteristics”.

The target in data set [1] is T1, RuvAMpn (Mycoplasma pneumoniae M129 (ATCC 29342), UniProt P75243 1-206).
T1 sequence: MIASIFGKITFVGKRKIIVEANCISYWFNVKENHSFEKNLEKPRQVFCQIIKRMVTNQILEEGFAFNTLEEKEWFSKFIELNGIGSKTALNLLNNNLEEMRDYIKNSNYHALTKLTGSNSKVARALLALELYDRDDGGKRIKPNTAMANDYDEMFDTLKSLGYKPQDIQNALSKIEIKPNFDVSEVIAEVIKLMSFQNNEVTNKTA
As to the kind of experiment: EMSA; no Mg2+; two complexes (I and II); 20 mM Tris-HCl pH 7.5, 1 mM DTT, 1 mM EDTA, 12.3 nM DNA, 10 ul, on ice 10 min; 8% PAGE in 0.5x TBE; +/- 10 mM Mg2+. Conditions: protein: recombinant; tags: N-terminal H10 (pET-16b); chain copies: 4; four-way Holliday junction HJ11:HJ12:HJ13:HJ14. Background: A gel shift assay detects complexes by their altered migration in electrophoresis.

A further data set concerns the target RecUMge (Mycoplasma genitalium, UniProt Q49422 1-166). As to the kind of experiment: EMSA; on ice, no BSA; three major and one minor complex at 500 nM; 20 mM Tris-HCl pH 7.5, 1 mM DTT, 1 mM EDTA, 12.3 nM DNA, 10 ul, on ice 10 min; 8% PAGE in 0.5x TBE; +/- 10 mM Mg2+.
Data set [2] deals with T2, RuvAMge (Mycoplasma genitalium G37 (ATCC 33530), UniProt Q49424 1-205). As to the kind of experiment: EMSA; no Mg2+; single complex up to 4 uM protein; 20 mM Tris-HCl pH 7.5, 1 mM DTT, 1 mM EDTA, 12.3 nM DNA, 10 ul, on ice 10 min; 8% PAGE in 0.5x TBE; +/- 10 mM Mg2+. Conditions: protein: recombinant; tags: N-terminal H10 (pET-16b); chain copies: 4; four-way Holliday junction HJ11:HJ12:HJ13:HJ14.

For data set [3], the target named is T2, RuvAMge. As to the kind of experiment: EMSA; no Mg2+; part of the complexes is with residual ss HJ11; 20 mM Tris-HCl pH 7.5, 1 mM DTT, 1 mM EDTA, 12.3 nM DNA, 10 ul, on ice 10 min; 8% PAGE in 0.5x TBE; +/- 10 mM Mg2+. As to conditions: protein: recombinant; tags: N-terminal H10 (pET-16b); chain copies: 4; 5' overhang 1 nt on HJ11rv.
Data set [4] addresses T1, RuvAMpn. Described as above. Conditions: protein: recombinant; tags: N-terminal H10 (pET-16b); chain copies: 4; 5' overhang 1 nt on HJ11rv.
Data set [5] concerns the target T1, RuvAMpn. As to the kind of experiment: EMSA; no Mg2+; efficiency similar to HJ; 20 mM Tris-HCl pH 7.5, 1 mM DTT, 1 mM EDTA, 12.3 nM DNA, 10 ul, on ice 10 min; 8% PAGE in 0.5x TBE; +/- 10 mM Mg2+. Conditions: protein: recombinant; tags: N-terminal H10 (pET-16b); single strand.

B1: HJ 1.1 (structured_DNA)
DNA 1: GCGACGTGATCACCAGATGATTGCTAGGCATGCTTTCCGCAAGAGAAGC
DNA 2: GGCTTCTCTTGCGGAAAGCATGCCTAGCAATCCTGTCAGCTGCATGGAAC
DNA 3: GGTTCCATGCAGCTGACAGGATTGCTAGGCTCAAGGCGAACTGCTAACGG
DNA 4: ACCGTTAGCAGTTCGCCTTGAGCCTAGCAATCATCTGGTGATCACGTCGC
As to B1, the binding result with RuvAMpn [1], in the data set with RecUMge and with RuvAMge [2] was “binds” each time.

B2: HJ11/HJ11rv (dsDNA)
DNA 1: B1 DNA 1
DNA 2: GGCTTCTCTTGCGGAAAGCATGCCTAGCAATCATCTGGTGATCACGTCGC
For the molecule B2, the binding result with RuvAMge [3] and in the data set with RuvAMpn [4] was “binds” each time.

B3: HJ11 (ssDNA)
DNA: B1 DNA 1
For the molecule B3, the binding result in the data set with RuvAMpn [5] was “binds”.
